This note sets out measurements from patent US20120107324A1.

In experiment [1] the target is β1 chain (integrin β1) (human) (UniProt P05556). Put plainly: FACS on HT29 cells; Gt anti Mouse alone 2.52.
The target in experiment [2] is Macaque β1 chain (Macaque). Put plainly: FACS on macaque T-cells; Goat anti Mouse IgGFc Cy5 alone 2.
The target in experiment [3] is human α5β1 integrin (human) (UniProt P08648). Put plainly: FACS on human α5β1-transfected 300.19 cells, 2.0 ug/mL.
The target in experiment [4] is β1 chain (integrin β1) (human) (UniProt P05556). Put plainly: FACS on HT29 cells, isotype control; human secondary 2.8.
Experiment [5] addresses human α5β1 integrin (human) (UniProt P08648). Put plainly: FACS on human α5β1-transfected against untransfected 300.19 cells, 2.0 ug/mL.
For experiment [6], the target named is Macaque α5β1 (Macaque). Put plainly: FACS on macaque T-cells, isotype control; Goat anti Human IgG Fc Cy5 alone 3.
In experiment [7] the target is Macaque αv chain (Macaque). Briefly: FACS on macaque T-cells; Goat anti Mouse IgGFc Cy5 alone 2.
Another experiment deals with αv integrin chain (UniProt P06756). Briefly: FACS on HT29 cells, positive control; Gt anti Mouse alone 2.52.
Sequence of αv integrin chain (P06756 31-1048 limits assumed): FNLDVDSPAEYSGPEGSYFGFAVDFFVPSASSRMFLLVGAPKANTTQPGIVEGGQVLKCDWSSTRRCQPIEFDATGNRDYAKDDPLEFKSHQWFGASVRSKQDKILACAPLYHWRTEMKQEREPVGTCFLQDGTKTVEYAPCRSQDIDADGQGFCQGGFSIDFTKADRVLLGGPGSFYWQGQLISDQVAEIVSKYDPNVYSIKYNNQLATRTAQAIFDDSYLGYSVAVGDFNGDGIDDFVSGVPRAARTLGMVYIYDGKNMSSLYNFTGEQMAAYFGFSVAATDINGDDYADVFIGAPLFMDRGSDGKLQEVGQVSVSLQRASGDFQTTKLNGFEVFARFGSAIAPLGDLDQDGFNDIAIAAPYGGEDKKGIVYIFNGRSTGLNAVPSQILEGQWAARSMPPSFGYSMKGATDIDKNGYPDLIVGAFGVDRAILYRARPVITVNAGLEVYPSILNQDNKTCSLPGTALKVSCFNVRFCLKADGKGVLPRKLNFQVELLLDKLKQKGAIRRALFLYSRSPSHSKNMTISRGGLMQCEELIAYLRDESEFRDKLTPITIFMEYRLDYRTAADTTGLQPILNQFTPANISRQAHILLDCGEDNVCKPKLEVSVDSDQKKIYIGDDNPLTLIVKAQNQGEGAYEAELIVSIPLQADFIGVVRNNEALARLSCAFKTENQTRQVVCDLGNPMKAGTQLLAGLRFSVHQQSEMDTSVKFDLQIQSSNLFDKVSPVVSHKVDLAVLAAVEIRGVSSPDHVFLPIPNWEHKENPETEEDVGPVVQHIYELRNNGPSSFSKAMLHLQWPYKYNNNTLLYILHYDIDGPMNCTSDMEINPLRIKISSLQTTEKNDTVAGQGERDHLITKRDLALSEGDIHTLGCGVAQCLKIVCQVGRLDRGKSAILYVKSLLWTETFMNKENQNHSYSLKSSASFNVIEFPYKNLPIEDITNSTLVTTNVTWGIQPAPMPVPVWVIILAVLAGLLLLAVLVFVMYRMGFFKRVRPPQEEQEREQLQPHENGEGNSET
The target of the next experiment is αvβ6 integrin (UniProt P06756). Described as above.
Sequence of αvβ6 integrin (P06756 31-1048, chain 1 of 2): as the sequence (P06756 31-1048 limits assumed) above
Sequence of αvβ6 integrin (P18564 22-788, chain 2 of 2, further chain): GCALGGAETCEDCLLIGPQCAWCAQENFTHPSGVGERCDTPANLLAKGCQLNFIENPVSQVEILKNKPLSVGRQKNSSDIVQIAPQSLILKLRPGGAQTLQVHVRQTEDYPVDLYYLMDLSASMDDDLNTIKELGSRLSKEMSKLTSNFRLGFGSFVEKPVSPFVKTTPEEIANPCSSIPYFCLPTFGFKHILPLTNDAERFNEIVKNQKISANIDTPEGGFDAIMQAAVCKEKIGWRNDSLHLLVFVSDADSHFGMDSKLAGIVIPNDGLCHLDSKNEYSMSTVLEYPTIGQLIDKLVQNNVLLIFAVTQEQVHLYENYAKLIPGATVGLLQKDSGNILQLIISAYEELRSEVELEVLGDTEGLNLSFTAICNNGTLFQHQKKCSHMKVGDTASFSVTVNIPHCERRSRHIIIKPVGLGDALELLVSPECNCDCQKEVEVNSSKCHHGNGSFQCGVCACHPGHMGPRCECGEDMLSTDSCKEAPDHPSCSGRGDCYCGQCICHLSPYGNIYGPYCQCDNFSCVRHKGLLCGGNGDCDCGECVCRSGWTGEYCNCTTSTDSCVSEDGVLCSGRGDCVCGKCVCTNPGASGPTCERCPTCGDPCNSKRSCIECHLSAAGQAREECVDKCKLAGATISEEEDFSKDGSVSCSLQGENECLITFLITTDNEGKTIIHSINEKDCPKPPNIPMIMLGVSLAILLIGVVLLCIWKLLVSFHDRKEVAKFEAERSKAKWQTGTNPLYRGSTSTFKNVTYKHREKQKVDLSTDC
Experiment [8] concerns the target β1 chain (integrin β1) (human) (UniProt P05556). Put plainly: FACS on HT29 cells, isotype control; Gt anti Mouse alone 2.52.
The target in experiment [9] is Macaque α5β1 (Macaque). Briefly: FACS on macaque T-cells, isotype control; Goat anti Mouse IgGFc Cy5 alone 2.
For experiment [10], the target named is human α5β1 integrin (human) (UniProt P08648). Briefly: FACS on human α5β1-transfected 300.19 cells, 0.2 ug/mL.
For experiment [11] the target is unchanged. Put plainly: FACS on human α5β1-transfected 300.19 cells, 0.02 ug/mL.
The target in experiment [12] is β1 chain (integrin β1) (human) (UniProt P05556). Briefly: FACS on HT29 cells (α5 null, β1 present); Gt anti Mouse alone 2.52.
Experiment [13] has as its target human α5β1 integrin (human) (UniProt P08648). Put plainly: FACS on human α5β1-transfected against untransfected 300.19 cells, 0.2 ug/mL.
Experiment [14] shares this target. Briefly: FACS on human α5β1-transfected against untransfected 300.19 cells, 0.02 ug/mL.

Sequence of human α5β1 integrin (human) (P08648 42-1049, chain 1 of 2): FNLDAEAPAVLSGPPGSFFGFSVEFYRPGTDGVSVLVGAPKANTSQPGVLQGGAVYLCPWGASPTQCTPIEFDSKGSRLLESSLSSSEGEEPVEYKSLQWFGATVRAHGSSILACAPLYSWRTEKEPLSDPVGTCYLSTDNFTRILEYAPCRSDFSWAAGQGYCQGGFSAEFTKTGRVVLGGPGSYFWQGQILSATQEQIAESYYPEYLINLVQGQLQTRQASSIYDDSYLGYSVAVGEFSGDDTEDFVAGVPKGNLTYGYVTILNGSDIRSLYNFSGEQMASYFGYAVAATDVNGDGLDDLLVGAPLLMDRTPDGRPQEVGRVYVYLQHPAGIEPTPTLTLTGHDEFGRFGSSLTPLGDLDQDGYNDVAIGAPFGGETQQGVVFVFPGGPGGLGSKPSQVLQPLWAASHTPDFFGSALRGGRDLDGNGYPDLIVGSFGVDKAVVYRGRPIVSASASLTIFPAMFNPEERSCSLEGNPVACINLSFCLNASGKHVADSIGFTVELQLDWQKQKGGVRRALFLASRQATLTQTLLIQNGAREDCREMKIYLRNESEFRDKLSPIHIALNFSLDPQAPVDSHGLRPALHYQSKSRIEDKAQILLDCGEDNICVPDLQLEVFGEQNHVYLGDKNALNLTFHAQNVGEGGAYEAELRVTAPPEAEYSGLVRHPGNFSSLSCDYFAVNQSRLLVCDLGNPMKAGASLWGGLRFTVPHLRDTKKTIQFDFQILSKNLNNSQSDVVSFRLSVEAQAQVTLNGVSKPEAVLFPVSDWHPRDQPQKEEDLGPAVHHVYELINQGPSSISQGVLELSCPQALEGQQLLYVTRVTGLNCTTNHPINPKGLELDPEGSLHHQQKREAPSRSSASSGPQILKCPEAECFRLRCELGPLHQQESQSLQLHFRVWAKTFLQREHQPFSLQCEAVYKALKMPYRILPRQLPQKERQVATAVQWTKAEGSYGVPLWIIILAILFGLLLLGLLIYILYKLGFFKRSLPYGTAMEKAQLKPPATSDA
Sequence of human α5β1 integrin (human) (P05556 21-798, chain 2 of 2, further chain): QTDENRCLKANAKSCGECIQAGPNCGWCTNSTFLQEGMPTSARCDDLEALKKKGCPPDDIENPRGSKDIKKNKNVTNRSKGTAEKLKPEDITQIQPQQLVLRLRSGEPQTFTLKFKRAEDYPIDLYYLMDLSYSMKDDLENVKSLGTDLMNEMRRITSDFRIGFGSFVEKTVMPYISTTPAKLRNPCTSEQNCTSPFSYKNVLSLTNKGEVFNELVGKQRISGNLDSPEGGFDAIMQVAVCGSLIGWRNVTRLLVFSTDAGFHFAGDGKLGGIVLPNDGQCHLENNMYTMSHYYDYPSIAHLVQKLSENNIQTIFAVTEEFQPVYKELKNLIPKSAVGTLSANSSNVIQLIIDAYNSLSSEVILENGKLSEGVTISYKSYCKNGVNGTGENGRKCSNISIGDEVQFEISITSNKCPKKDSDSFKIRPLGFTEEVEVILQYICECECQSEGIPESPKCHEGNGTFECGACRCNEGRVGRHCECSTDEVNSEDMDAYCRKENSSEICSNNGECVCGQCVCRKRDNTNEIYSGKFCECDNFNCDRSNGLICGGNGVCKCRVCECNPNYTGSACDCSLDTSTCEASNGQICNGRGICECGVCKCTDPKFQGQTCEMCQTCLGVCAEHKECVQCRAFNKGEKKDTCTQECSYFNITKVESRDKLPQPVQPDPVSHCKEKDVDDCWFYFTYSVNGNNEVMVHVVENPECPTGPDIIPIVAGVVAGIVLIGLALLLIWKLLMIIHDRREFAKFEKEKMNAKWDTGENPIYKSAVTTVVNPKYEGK
Sequence of β1 chain (integrin β1) (human) (P05556 21-798): as the sequence (P05556 21-798, chain 2 of 2, further chain) above

Substance 4B4 (antibody) gave a Binding Geomean in experiment [1] of 362. In experiment [2], this substance showed a Geo Mean on Macaque T-cells IgG detection of 141.

In turn, Human IgG2 (antibody) showed a X Geo Mean in [3] of 12. In experiment [4], the Binding Geomean is 2.84. Also, the Ratio (α5β1 expressing B300.19 cells against B300.19 cells) in experiment [5] amounted to 0.8.

Human IgG2/4 (antibody) had a Geo Mean on Macaque T-cells IgG detection with Macaque α5β1 (Macaque) [6] of 3.

As for Human IgG4 (antibody), the Binding Geomean in experiment [4] was determined as 3.2.

L230 (antibody) gave a Geo Mean on Macaque T-cells IgG detection in [7] of 3. For the same substance, in the experiment with αv integrin chain, the Binding Geomean was determined as 294.

In the experiment with αvβ6 integrin, MAB2077Z (antibody) displayed a Binding Geomean of 39.2.

Substance Mouse IgG1 (antibody) returned a X Geo Mean in experiment [3] of 14.9. Moreover, in [8], the Binding Geomean was 2.55. Also, the Geo Mean on Macaque T-cells IgG detection with Macaque α5β1 (Macaque) [9] worked out at 2. Also, the Ratio (α5β1 expressing B300.19 cells against B300.19 cells) in experiment [5] amounted to 0.9.

The substance Mouse IgG2a (antibody) registered a Binding Geomean in experiment [8] of 10.2.

With mAb 1969 (antibody), the results for the X Geo Mean in experiment [10], in experiment [3] and in experiment [11] were 152, 194 and 45.1, respectively. The substance also came in with a Binding Geomean in experiment [12] of 2.69. Moreover, the Ratio (α5β1 expressing B300.19 cells against B300.19 cells) in experiment [13] was determined as 6.9; in experiment [5], 9.5; in [14], 2.5.
